Drawing on article PMC3459938, this text covers percent Pt-Dd binding relative to WW (2-3-4)-GFP, Kd and decrease in affinity relative to WW (2-3-4)-GFP for one substance.

Common to all, as to test: ELISA
A general note: An ELISA detects its analyte on a solid surface through an enzyme-linked reagent.

Assay [1] addresses WW2-GFP (construct 7) (human) (UniProt P46934).
A further assay concerns the target WW3-GFP (human) (UniProt P46934).
Assay [2] concerns the target WW4-GFP (construct 9) (human) (UniProt P46934).
In another assay the target is WW_(2-3-4)-GFP (human) (UniProt P46934).
Assay [3] deals with construct 2 (WW2-WW3-GFP, natural linker) (human) (UniProt P46934).
Assay [4] deals with construct 4 (two WW domains joined by QGLQNEE, GFP fusion).
In assay [5] the target is construct 5 (two WW domains joined by QGLQNEE, GFP fusion).

Turning to “Adenovirus serotype 3 Penton-Dodecahedron (from UniProt Q2Y0H9 1-544; P04501 1-319) (complex)”, the percent Pt-Dd binding relative to WW (2-3-4)-GFP stood at 13% in assay [1], 80% with WW3-GFP (human) and 40% in assay [2]. Moreover, the Kd (as a rule, the free concentration of one partner at which half of the binding sites on the other are occupied at equilibrium, for simple one-to-one binding) amounted to 0.0824 nM in the assay with WW3-GFP (human) and 0.0525 nM with WW_(2-3-4)-GFP (human). For the same substance, the decrease in affinity relative to WW (2-3-4)-GFP in assay [3], in assay [4] and in assay [5] was 20% in each case.
